The data set can be described thus: soluble on expression in E. coli; label from the status in PepcDB or PDB records.
With “MGSDKIHHHHHHMRIGFLSHAGASIYHFRMPIIKALKDRKDEVFVIVPQDEYTQKLRDLGLKVIVYEFSRASLNPFVVLKNFFYLAKVLKNLNLDFIQSAAHKSNTFGILAAKWAKIPYRFALVEGLGSFYIDQGFKANLVRFVINSLYKLSFKFAHQFIFVNESNAEFMRNLGLKENKICVIKSVGINLKKFFPIYVESEKKELFWKNLNIDKKPIVLMIARALWHKGVKEFYESATMLKDKANFVLVGGRDENPSCASLEFLNSGAVHYLGARSDIVELLQNCDIFVLPSYKEGFPVSVLEAKACGKAIVVSDCEGCVEAISNAYDGLWAKTKNAKDLSEKISLLLEDEKLRLNLAKNAAQDALQYDENIIAQRYLKLYDRVIKNV”, the “soluble on expression in E. coli” value is on record as “not soluble”.

As to “GPGSMSEYADCTEVAKKALEFRQQFYQLLDNPERRGDIVALYAPNTPLLCEWNGHALPDTASIAAYLGGLPRTNHKVDCVDAQPLPGNERADSFLMTVHGVVTYDDEHKREFFQRFVIRKVEERYYIMNDYYRWLSEKE”, the “soluble on expression in E. coli” value was “not soluble”.

For the sequence “MAHHHHHHMTETTGARGRRTFMGRRRSQHEVQTEASFVPGCSSLEYAYDPLASEQYANLVELRQMIHSCLTLVAGDVYDVVSFKDILYHLESEMPSSLPVTDLLLLSSRLFRRTAELGRLLSCFFGVVFADDRNDEHFRFAEVRLLQREIRELKRQLSASEEERRRLKEMLDNVGQVAYDHGRAVELLETHNKVLKKQSTALEDQMALLFHQLNTGLEGHCKSAYQQVTGEMMVQESLNPARITFRQTMDSLSEQLRGSRGLITDVREVLLSCSQGRRTGEAYAAVEPTVRFKLKMLEANFQQLMGRFTAVKDTVVETAQELMNALQERKKILCLSFQHIRLYDLQNAKLRNARAILAQLQHNTSEVVRRIRVTFPSGNLTSVDRFGNIRTQRWHGGYTLATLRGYNLTEQQQQGEGEMSEVARSSTAVPSLTAGASRTLPGLTESQIMAAESEMAVIDGGVHSVTPVGLALSPGFRSMRASHSGVSPPPLRTSVPPSRGGSKLASARGSSSTTGMPAPVSAPTSVRSDDPDVLPFESVSTFVDLMHDIHDDMDELQSALVLDDEMAAFLKVLTLSASTTPRADALEIAGDPTGRAALLERQEYNMETALQPTGGRPGGTRGAPSSASVVSGNESITALEANSFSSLFSKMGTPSTSSEARGGARAENASSEAVMARQAVQLQRQQKQIAKMQEDFTSKVGFLRQVYEARIGDLEVRETTVSKRLGLVGGSAFQRGAGDGGSGRSSPGVRKGEDESPVSSSPGDKERLTKLRKEWRQSKRKLQPNRKLREATAEQLQLMQKDEKL”, the “soluble on expression in E. coli” value was “not soluble”.

For “MGSDKIHHHHHHMNFLDGHLFPENQQPLIITAAPYAPSWMPSDFPEDIAVTMEDQIQKAVDCYNAGATVLHLHVRELDGKGSKRLSKFNELIAGVRARVPEMIIQVGGSISFAPESEGAAAKWLSDDTRHMLAELEPTPDQVTVTVNTSQMNILEQFDHRDIVGSSMEDPEVFNAYKEMTVPAQPGWVEEHVRRLTAAGIQSAFQCYNLNSFESVERLMRRGIYKGPLVLNWVAIGGGMDSPSVYSLANFVRAVPDGAVLTVESSVCNVLPVNTMGIAMGLHVRCGTEDTLWNQTRTKKMGTVAQIEQLVRISEEMSRPIATARQAREMCRIGEFYDTVDETLQANGFAPNRNGGQQGFLRKVA”, the “soluble on expression in E. coli” value is reported as “not soluble”.

In the case of “MGSDKIHHHHHHMESLSEGTTAGYQQIHDGIIHLVDSARTETVRSVNALMTATYQEIGRRIVEFEQGGEARAAYGAQLIKRLSKDLCLRYKRGFSAKNLRQMRLFYLFFQHVEIHQTMSGELTPLGIPQTPSAEFPSAKIWQTLSAKSFPLPRSTYVRLLSVKNADARSFYEKETLRCGWSVRQLERQIATQFYERTLLSHDKSAMLQQHAPAETHILPQQAIRDPFVLEFLELKDEYSESDFEEALINHLMDFMLELGDDFAFVGRQRRLRIDDNWFRVDLLFFHRRLRCLLIVDLKVGKFSYSDAGQMNMYLNYAKEHWTLPDENPPIGLVLCAEKGAGEAHYALAGLPNTVLASEYKMQLPDEKRLADELVRTQAVLEEGYRRR”, the “soluble on expression in E. coli” value is “not soluble”.

For the sequence “MTDMKVLKMEVMRYNPERDSEPHFETFEVPYDEQTSLLDALGYIKDNLAPDLSYRWSCRMAICGSCGMMVNKVPKLACKTFLREYTAGMKVEALGNFPIERDLVVDMTHFIESLEAIKPYIIGNERLPKDGPNKQTPAQMAKYHQFSGCINCGLCYAACPQFGLNPEFIGPAAITLAHRYNLDNRDHGKKERMPQLNGKNGVWSCTFVGYCSEVCPKHVDPAAAIQQGKIDSAKDFMIAMLKPQ”, the “soluble on expression in E. coli” value was “not soluble”.

Regarding “MGSDKIHHHHHHMQEIVDQLAATIRAAAASNVPLRIRSGGTKDFYGQQDKGRDVAPEGILDPTAFAGIVDYEPTELVVTARTGTPLAQLETELNGRGQMLAFEPPHFGAGATLGGCIAAGLSGPRRASAGAVRDFVLGVRMLDGRGDDLSFGGRVMKNVAGYDIPRLMAGSLGTLGLLLEVSLKVLPLPAEERTLRLSMNEAVAIETMNRWAGKPLPVSATCFCEGELTVRLSGATSAVRAARAVLGGEEIVENSSFWKSIREQVHPFFRSGKQLWRLSIKSTTAPLSLPGKQLIEWGGAVRWLSVDAEMDNDAVETLVRKTAKEAGGHATLFRSRTPAAAVFHPLPPAMMNIHRQLKEKFDPMRIFNRGRLYPEL”, the “soluble on expression in E. coli” value is given as “not soluble”.

Take “MGSDKIHHHHHHMKLIATDMDGTLLNDERKISKENAEAIKAAQQDGIHVVVATGRDFKEASMPLKEAGLTCPILCVNGAEERSANGELIHAVSLAKNEALTILDILTAADVYFEVYTNRGAFTDDYEKGLEIVIDVLQSAGSDDSYEKMREIAKHRFESGAVQLTEDYTKLIDSTAVYKFLAFSRDETKRQAAKDDLEKKDVFSVSASASDNLEITHWQAQKGIALRRLAERLGINSDDVMAIGDNLNDVSMLKYAGTAVAMENGEAEVKQLADFVTASNEDNGVAKAINKWLK”: the “soluble on expression in E. coli” value was “not soluble”.

For “MGSDKIHHHHHHMLSHEDNETLVRVGPGTPTGQFMRLYWLPFLPSSDLTVDGQPQRVRLLGEDLIAFRDSEGRVGLVDHVCPHRGAPLVFGRNENCGLRCVYHGWQFGVDGQVIDTPAEPAESRLKDKVRIRSYPCRERNGIVWAYMGEADANALPPLPNLEWNMVPLENVHFSFRVQECNWLQAVEGEIDSAHAPILHGRIDSQGAINEWTAKRDLRPVFECQRREFGISIASRRVLDDSHHYWRVNQFLFPFYTLVPPQSKYPELSGHAWVPVDDENTLCLMFSYTPAAPLYEKTRKLFEDGHAGRETGHASAHAFAPRPVTQPYAKYWTRFNLESAFQFDYDAQTKTWFSGLPGLWVQDAACQSGVAPIYDRRKENLGISDTGVAMTRRLLLENVRKLASERVSPVRVDDPDLWMVRAVSLTLPAGAPWQSDGAEHMRARLGADFGYTP”, the “soluble on expression in E. coli” value is on record as “not soluble”.

Take “MSLDVQSDIVAYDAPKKDLYEIGEMPPLGHVPKEMYAWAIRRERHGEPDQAMQIEVVETPSIDSHEVLVLVMAAGVNYNGIWAGLGVPVSPFDGHKQPYHIAGSDASGIVWAVGDKVKRWKVGDEVVIHCNQDDGDDEECNGGDPMFSPTQRIWGYETPDGSFAQFTRVQAQQLMKRPKHLTWEEAACYTLTLATAYRMLFGHKPHDLKPGQNVLVWGASGGLGSYAIQLINTAGANAIGVISEEDKRDFVMGLGAKGVINRKDFKCWGQLPKVNSPEYNEWLKEARKFGKAIWDITGKGINVDMVFEHPGEATFPVSSLVVKKGGMVVICAGTTGFNCTFDVRYMWMHQKRLQGSHFANLKQASAANQLMIERRLDPCMSEVFPWAEIPAAHTKMYRNQHKPGNMAVLVQAPRTGLRTFADVLEAGRKEGHHHHHH”: the “soluble on expression in E. coli” value was “soluble”.

“MSLTTLHFSGFPRVGAFRELKFAQEKYWRKEISEQELLAVAKDLREKNWKHQVAANADFVAVGDFTFYDHILDLQVATGAIPARFGFDSQNLSLEQFFQLARGNKDQFAIEMTKWFDTNYHYLVPEFHADTEFKANAKHYVQQLQEAQALGLKAKPTVVGPLTFLWVGKEKGAVEFDRLSLLPKLLPVYVEILTALVEAGAEWIQIDEPALAVDLPKEWVEAYKDVYATLSKVSAKILLSTYFGSVAEHAALLKALPVDGLHIDLVRAPEQLDAFADYDKVLSAGVIDGRNIWRANLNKVLETVEPLQAKLGDRLWISSSCSLLHTPFDLSVEEKLKANKPDLYSWLAFTLQKTQELRVLKAALNEGRDSVAEELAASQAAADSRANSSEIHRADVAKRLADLPANADQRKSPFADRIKAQQAWLNLPLLPTTNIGSFPQTTEIRQARSAFKKGELSAADYEAAMKKEIALVVEEQEKLDLDVLVHGEAERNDMVEYFGELLSGFAFTQYGWVQSYGSRCVKPPIIFGDVSRPEAMTVAWSTYAQSLTKRPMKGMLTGPVTILQWSFVRNDIPRSTVCKQIALALNDEVLDLEKAGIKVIQIDEPAIREGLPLKRADWDAYLNWAGESFRLSSAGCEDSTQIHTHMCYSEFNDILPAIAAMDADVITIETSRSDMELLTAFGEFQYPNDIGPGVYDIHSPRVPTEAEVEHLLRKAIEVVPVERLWVNPDCGLKTRGWKETLEQLQVMMNVTRKLRAELAKEGHHHHHH”: the “soluble on expression in E. coli” value is recorded as “not soluble”.

Turning to “MGHHHHHHSHCDSDCLWVGLAGPQILPPCRSIVRTLHQHKLGRASWPSVQQGLQQSFLHTLDSYRILQKAAPFDRRATSLAWHPTHPSTVAVGSKGGDIMLWNFGIKDKPTFIKGIGAGGSITGLKFNPLNTNQFYASSMEGTTRLQDFKGNILRVFASSDTINIWFCSLDVSASSRMVVTGDNVGNVILLNMDGKELWNLRMHKKKVTHVALNPCCDWFLATASVDQTVKIWDLRQVRGKASFLYSLPHRHPVNAACFSPDGARLLTTDQKSEIRVYSASQWDCPLGLIPHPHRHFQHLTPIKAAWHPRYNLIVVGRYPDPNFKSCTPYELRTIDVFDGNSGKMMCQLYDPESSGISSLNEFNPMGDTLASAMGYHILIWSQEEARTRK”, the “soluble on expression in E. coli” value is on record as “not soluble”.

Take “MGSDKIHHHHHHMIIIIDEASAKLASFYYHDEIFKPQWKCAADMSSASDELHDEFQEKLQEKLPDELREKLYVVLPADESINDFQKTTIQESADNTAKANTGNLRIPKAPTDCIWIVSDRQQKQIADSLGIASVGEPQCGTRYAVESLAELDIEYLERVRRRYNHIPWDIGETDRCLIRELSLADLPALYELYDKPGMTDFVEPLYDYETELEYQKAYIENMYDFYEYGMWLVFSKETGKLIGRAGLEHNEMGYMIAPEFQNLGYATEVCRFIVDYARKNTDFEELYCRIDEKNVASVRLAKRLGFVRNGQIGNERNTGGLDRYVLSI”: the “soluble on expression in E. coli” value is on record as “not soluble”.

With “MSEQLVTPENVTTKDGKINLLDLNRQQMREFFKDLGEKPFRADQVMKWMYHYCDNFDEMTDINKVLRGKLKEVAEIRAPEVVEEQRSSDGTIKWAIAVGDQRVETVYIPEDDRATLCVSSQVGCALECKFCSTAQQGFNRNLRVSEIIGQVWRAAKIVGAAKVTGQRPITNVVMMGMGEPLLNLNNVVPAMEIMLDDFGFGLSKRRVTLSTSGVVPALDKLGDMIDVALAISLHAPNDEIRDEIVPINKKYNIETFLAAVRRYLEKSNANQGRVTIEYVMLDHVNDGTEHAHQLAELLKDTPCKINLIPWNPFPGAPYGRSSNSRIDRFSKVLMSYGFTTIVRKTRGDDIDAACGQLAGDVIDRTKRTLRKRMQGEAIDIKAV”, the “soluble on expression in E. coli” value is “not soluble”.

For the sequence “MGSDKIHHHHHHMSQDTILLIWDRIGDYHLSRVKACEKLLGAPVFTADLAGTDNLYKWDSIAKTTHTVLSSKPAEQSDIWNRFRTFRRIIKTHSIAVVAMPYGRTEYHIFLLYARLKGIRTIIFSESWYSRGKLKDFLKSLLLKSLGNYFFVSGKRAFDHFTKNYKINPEKIETGYSVVDNNHFQRRLFTEKKYVLTIARYSEEKNLSFLIDSYAKSVISNTYNLMLIGEGPLRPALQSQIDILGLSDRVQLAGWVPYAALPKAYAEAVVFVLPSSFEPWGLVVNEAMSAGLPILVSDACGCMPELVAEGVNGWSFNSNTQQELIERLNAFAALSEKGIEITGKNSMQLIRNYTPDTWAGSIARLAQAGR”, the “soluble on expression in E. coli” value was “not soluble”.
